Measured values reported in patent US20230302124.

Molecular target: T1, simplified alpha-carboxysome shell of CsoS1A and CsoS4A-SII
T1 chain 1: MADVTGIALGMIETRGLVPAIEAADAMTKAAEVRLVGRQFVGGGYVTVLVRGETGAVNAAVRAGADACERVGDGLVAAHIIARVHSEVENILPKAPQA
T1 chain 2: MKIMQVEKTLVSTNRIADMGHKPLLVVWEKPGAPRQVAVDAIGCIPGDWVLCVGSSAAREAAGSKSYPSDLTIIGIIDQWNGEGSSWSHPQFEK

B1: His6-APEX2-S2CP(30) (protein)
chain: HHHHHHMGSSHHHHHHSSGMGKSYPTVSADYQDAVEKAKKKLRGFIAEKRCAPLMLRLAFHSAGTFDKGTKTGGPFGTIKHPAELAHSANNGLDIAVRLLEPLKAEFPILSYADFYQLAGVVAVEVTGGPKVPFHPGREDKPEPPPEGRLPDPTKGSDHLRDVFGKAMGLTDQDIVALSGGHTIGAAHKERSGFEGPWTSNPLIFDNSYFTELLSGEKEGLLQLPSDKALLSDPVFRPLVDKYAADEDAFFADYAEAHQKLSELGFADAGSSKPEKPGSKITGSSGNDTQGSLITYSGGARG
Which Average enzyme copy number per shell (T = 3) (copies per shell) does the source give for B1 here?
Its Average enzyme copy number per shell (T = 3) (copies per shell) is 11.

And the Average enzyme copy number per shell (T = 4) (copies per shell)?
Its Average enzyme copy number per shell (T = 4) (copies per shell) is 14.6.
